Test results published in patent publication US20180142032A1 (Sanofi, published 2018).
Read-outs that look alike come from different tables or passages of the source.

T1: cynomolgus monkey LAMP1 at the cell surface (cynomolgus monkey, UniProt P11279 29-417 (human entry))
T1 construct: also called cynoLAMP1; cynomolgus LAMP1
T1 chain: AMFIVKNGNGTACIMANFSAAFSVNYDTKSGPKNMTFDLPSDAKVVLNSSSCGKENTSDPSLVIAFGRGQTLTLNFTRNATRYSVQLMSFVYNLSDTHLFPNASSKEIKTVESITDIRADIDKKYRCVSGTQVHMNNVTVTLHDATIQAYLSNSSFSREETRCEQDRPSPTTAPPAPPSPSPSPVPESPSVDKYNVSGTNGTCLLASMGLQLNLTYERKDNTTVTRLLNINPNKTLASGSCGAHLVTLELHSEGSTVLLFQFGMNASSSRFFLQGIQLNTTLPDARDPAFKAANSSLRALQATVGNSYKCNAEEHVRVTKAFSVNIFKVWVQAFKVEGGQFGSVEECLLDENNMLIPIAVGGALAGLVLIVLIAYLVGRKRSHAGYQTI

T2: human LAMP1 at the cell surface (human, UniProt P11279 29-417)
T2 sequence: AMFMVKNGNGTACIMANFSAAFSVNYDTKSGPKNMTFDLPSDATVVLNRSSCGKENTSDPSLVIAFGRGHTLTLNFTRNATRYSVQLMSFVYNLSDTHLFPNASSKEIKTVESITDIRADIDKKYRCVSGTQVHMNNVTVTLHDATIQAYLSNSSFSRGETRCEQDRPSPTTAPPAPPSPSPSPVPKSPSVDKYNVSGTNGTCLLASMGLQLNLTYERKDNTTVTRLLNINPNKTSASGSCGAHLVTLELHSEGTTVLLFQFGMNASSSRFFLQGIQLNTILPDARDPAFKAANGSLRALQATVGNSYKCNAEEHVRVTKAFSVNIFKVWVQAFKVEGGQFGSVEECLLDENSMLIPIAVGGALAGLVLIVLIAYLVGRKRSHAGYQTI

T3: mLAMP1::histag (mouse, UniProt P11438 25-369)
T3 construct: also called mouse LAMP1 (25-369); Mouse LAMP1
T3 sequence: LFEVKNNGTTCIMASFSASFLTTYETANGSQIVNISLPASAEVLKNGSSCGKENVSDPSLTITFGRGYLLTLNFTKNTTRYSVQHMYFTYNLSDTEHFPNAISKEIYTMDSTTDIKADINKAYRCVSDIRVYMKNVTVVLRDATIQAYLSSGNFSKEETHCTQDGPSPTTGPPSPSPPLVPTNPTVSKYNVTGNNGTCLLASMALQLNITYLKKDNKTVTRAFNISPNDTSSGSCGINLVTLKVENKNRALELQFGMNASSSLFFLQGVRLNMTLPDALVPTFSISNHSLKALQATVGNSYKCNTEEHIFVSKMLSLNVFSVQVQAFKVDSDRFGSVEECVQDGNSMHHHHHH

T4: mLAMP1_L1_LAMP1_L234::histag (mouse/human hybrid)
T4 construct: also called Loop1: mLAMP1 Loop2-4: hLAMP1
T4 chain: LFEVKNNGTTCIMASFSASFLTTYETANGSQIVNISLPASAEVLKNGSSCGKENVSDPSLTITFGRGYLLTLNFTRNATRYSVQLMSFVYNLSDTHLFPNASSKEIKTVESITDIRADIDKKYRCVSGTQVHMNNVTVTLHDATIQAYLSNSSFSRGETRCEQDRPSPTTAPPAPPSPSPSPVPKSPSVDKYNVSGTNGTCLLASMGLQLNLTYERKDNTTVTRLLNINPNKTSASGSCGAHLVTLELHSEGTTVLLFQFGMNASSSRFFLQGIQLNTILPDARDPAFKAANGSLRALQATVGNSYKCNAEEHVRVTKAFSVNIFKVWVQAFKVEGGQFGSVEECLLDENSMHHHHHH

T5: mLAMP1_L12_LAMP1_L34::histag (mouse/human hybrid)
T5 construct: mouse LAMP1 (25-189) and human LAMP1 (196-382), His tag; also called Loop1-2: mLAMP1 Loop3-4: hLAMP1
T5 chain: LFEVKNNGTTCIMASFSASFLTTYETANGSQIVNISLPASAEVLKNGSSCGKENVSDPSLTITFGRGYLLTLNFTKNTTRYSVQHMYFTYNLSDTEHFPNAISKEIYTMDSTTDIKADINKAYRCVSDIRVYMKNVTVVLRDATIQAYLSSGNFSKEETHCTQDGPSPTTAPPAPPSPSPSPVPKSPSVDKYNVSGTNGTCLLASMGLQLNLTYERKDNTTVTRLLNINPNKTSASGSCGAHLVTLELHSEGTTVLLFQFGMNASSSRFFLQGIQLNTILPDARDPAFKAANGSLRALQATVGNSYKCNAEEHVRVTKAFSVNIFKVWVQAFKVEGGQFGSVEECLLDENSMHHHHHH

T6: hLAMP1_ΔGYQTI (human, UniProt P11279 29-412)
T6 construct: also called pXL5626
T6 sequence: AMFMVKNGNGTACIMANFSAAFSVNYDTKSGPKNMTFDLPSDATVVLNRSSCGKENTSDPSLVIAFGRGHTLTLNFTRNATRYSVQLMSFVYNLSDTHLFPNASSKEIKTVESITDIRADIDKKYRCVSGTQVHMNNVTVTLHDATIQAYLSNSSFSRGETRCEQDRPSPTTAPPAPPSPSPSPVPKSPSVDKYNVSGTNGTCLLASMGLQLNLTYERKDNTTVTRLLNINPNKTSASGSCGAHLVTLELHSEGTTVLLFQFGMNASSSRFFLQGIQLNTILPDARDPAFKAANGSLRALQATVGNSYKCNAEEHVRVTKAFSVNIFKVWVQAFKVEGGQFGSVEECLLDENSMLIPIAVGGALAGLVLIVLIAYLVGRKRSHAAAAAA

T7: LAMP1_mL1_hL234_ΔGYQTI (mouse; human)
T7 construct: on cells; also called pXL5668
T7 chain: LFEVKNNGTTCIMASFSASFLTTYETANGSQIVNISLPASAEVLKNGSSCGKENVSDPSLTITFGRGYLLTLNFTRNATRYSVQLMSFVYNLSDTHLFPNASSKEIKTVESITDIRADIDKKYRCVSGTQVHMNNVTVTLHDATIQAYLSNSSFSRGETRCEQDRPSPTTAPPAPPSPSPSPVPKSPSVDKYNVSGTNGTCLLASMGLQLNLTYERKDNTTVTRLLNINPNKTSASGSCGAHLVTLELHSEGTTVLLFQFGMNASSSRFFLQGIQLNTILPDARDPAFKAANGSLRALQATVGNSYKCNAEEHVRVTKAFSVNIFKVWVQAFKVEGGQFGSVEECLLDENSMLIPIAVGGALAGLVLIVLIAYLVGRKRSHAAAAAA

T8: LAMP1::histag (human, UniProt P11279 29-382)
T8 construct: extracellular domain without signal peptide, C-terminal 6 His tag, made in HEK293 cells; also called recombinant human LAMP1; human LAMP1 (29-382)
T8 sequence: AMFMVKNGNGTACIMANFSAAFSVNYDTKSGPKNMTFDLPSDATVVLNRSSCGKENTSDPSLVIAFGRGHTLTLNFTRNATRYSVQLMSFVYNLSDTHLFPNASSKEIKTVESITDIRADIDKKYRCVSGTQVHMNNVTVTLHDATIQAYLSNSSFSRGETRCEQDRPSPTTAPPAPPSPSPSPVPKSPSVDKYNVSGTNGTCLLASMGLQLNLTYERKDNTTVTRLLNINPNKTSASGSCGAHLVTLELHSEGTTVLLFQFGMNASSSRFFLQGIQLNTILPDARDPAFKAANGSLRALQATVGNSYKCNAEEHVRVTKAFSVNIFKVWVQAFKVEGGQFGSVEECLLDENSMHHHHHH


How the values were obtained:
[1] = target: T1, cynomolgus monkey LAMP1 at the cell …; assay: flow cytometry
[2] = target: T2, human LAMP1 at the cell surface; assay: cell-based or functional assay
[3] = target: T2, human LAMP1 at the cell surface; assay: flow cytometry, HCT116 huLAMP1 clone 8
Experimental: HCT116 cells were infected by a lentiviral vector allowing stable integration of the human or the cynomolgus LAMP1 CDS in genomic DNA of cells. Individual clones with different densities of human or cynomolgus LAMP1 cell surface localization were derived from a pool of HCT116 infected cells. […] 100 μL/well of goat anti-human IgG conjugated with Alexa488 (Invitrogen; # A11013) was added for 1 h at 4° C. and washed two times with PBS 1% BSA. The antibody binding was evaluated after centrifugation and resuspension of cells in 100 μl fixing solution (paraformaldehyde at 4% in PBS). Samples were read using Galaxy® Flow Cytometry System (Partec). EC50 values were estimated using BIOST@T-SPEED software.

[4] = target: T1, cynomolgus monkey LAMP1 at the cell …; assay: flow cytometry, HEK293 cynoLAMP1 clone 44
mLAMP1::histag = target: T3, mLAMP1::histag; assay: ELISA
[5] = target: T4, mLAMP1_L1_LAMP1_L234::histag; assay: ELISA
[6] = target: T5, mLAMP1_L12_LAMP1_L34::histag; assay: ELISA
hLAMP1_ΔGYQTI = target: T6, hLAMP1_ΔGYQTI; assay: flow cytometry, transfected 293-F cells
LAMP1_mL1_hL234_ΔGYQTI = target: T7, LAMP1_mL1_hL234_ΔGYQTI; assay: flow cytometry, transfected 293-F cells
[7] = target: T2, human LAMP1 at the cell surface; assay: cell-based or functional assay; remark: listed apart in the source
LAMP1::histag = target: T8, LAMP1::histag; assay: ELISA on secreted human LAMP1
[8] = target: T2, human LAMP1 at the cell surface; assay: flow cytometry, HCT116 huLAMP1 clone 8; remark: listed apart in the source
Experimental: 100 μL/well of goat anti-human IgG conjugated with Alexa488 (Invitrogen; # A11013) was added for 1 h at 4° C. and washed two times with PBS 1% BSA. The antibody binding was evaluated after centrifugation and resuspension of cells in 100 ul fixing solution (paraformaldehyde at 4% in PBS). Samples were read using Galaxy® Flow Cytometry System (Partec).

Binder	Ratio of EC50s (cynoLAMP1 against huLAMP1) [1]	cytotoxicity IC50, HCT116 huLAMP1 clone 8 [2]	EC50 [3]	EC50 [4]	binding result (mLAMP1::histag)	binding result [5]	binding result [6]	mean fluorescence (hLAMP1_ΔGYQTI)	binding result (LAMP1_mL1_hL234_ΔGYQTI)	ADCC EC50, NK batch 67125626389 [7]	ADCC EC50, NK batch 67125903091 [7]	ADCC EC50, NK batch 67130127373 [7]	ADCC EC50, NK batch 67130494552 [7]	ADCC EC50, NK batch 67130496259 [7]	EC50 (LAMP1::histag)	EC50 [8]
DM4-SPDB-huMAb1_1 (antibody, human IgG1, kappa, DM4 linked through SPDB, average DAR 3.4 per antibody; sites not stated, antibody drug conjugate of huMAb1_1) heavy: not shown light: DIQMTQSPSSLSASVGDRVTITCKASQDIDRYMAWYQDKPGKAPRLLIHDTSTLQSGVPSRFSGSGSGRDYTLTISNLEPEDFATYYCLQYDNLWTFGGGTKVEIKRTVAAPSVFIFPPSDEQLKSGTASVVCLLNNFYPREAKVQWKVDNALQSGNSQESVTEQDSKDSTYSLSSTLTLSKADYEKHKVYACEVTHQGLSSPVTKSFNRGEC	2.65	100 pM	12600 pM	33500 pM												
chMAb3 (antibody, human IgG1, kappa, V domains shown, chimeric, human IgG1, Ckappa) VH: QIQLVQSGPELKKPGETVKISCKASGYIFTNYGMNWVKQAPGKGLKWMGWINTYTGESRYADDFKGRFALSLETSASTAYLQINNLENEDMATYFCAREDYYGNSPWFFDVWGAGTTVTVSS VL: DIQMTQTTSSLSASLGDRVTISCNASQGINKYLNWYQQKPDGTVKLLIYYTSTLHSGVPSRFSGSGSGTDYSLTINNLEPEDIATYYCQQYTKLPFTFGSGTKLEIKR					no binding	no binding	no binding	640	no binding							
chMAb1 (antibody, human IgG1, kappa, chimeric, human IgG1, Ckappa; also called MAb1 (chimeric)) heavy: not shown light: DIQMTQSPPSLSASLGGKVTITCKASQDIDRYMAWYQDKPGKGPRLLIHDTSTLQPGIPSRFSGSGSGRDYSFSISNLEPEDIATYYCLQYDNLWTFGGGTKLEIKRTVAAPSVFIFPPSDEQLKSGTASVVCLLNNFYPREAKVQWKVDNALQSGNSQESVTEQDSKDSTYSLSSTLTLSKADYEKHKVYACEVTHQGLSSPVTKSFNRGEC					no binding		no binding			50 pM	760 pM	9 pM	200 pM	600 pM	90 pM	6000 pM
